Consider nine molecules from patent US20040229290A1 (priority 2003, published 2004).

Residue numbers refer to the chain shown, from its start. Read-outs that look alike come from different tables or passages of the source.

The conditions of data set [1]: read-out: KM (μM), second group; cited from earlier work.
For data set [2] the following is noted: read-out: DHAP → GAP KM; cited from earlier work.
The next data set concerns the target NovoTim1.0. Format: biochemical.
A further data set addresses wild-type TIM (Homo sapiens, UniProt P60174). Conditions: cited from earlier work.
The conditions of data set [3]: read-out: affinities of wild-type receptors for cognate ligands; cited from earlier work.
The format of data set [4] is physicochemical. Conditions: pH 7.
The format of data set [5] is binding. The note with it: read-out: K1 (μM) D-lac.
The format of data set [6] is binding. Conditions: read-out: K1 (μM) L-lac.
The format of data set [7] is binding. Conditions: read-out: K1 (μM) Pyr.

Sequence of wild-type TIM (P60174 whole entry): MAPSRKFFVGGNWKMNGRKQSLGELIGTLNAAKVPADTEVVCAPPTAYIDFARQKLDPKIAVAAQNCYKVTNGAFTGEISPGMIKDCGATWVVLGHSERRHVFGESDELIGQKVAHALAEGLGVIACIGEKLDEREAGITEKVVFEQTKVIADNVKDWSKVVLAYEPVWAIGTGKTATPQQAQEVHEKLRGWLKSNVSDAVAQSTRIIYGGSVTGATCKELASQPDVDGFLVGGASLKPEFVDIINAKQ

As to triose phosphate isomerase [wtTIM], the Km was 390 µM in [1] and 1600 µM in [2].
Turning to `O=C(O)COP(=O)(O)O` [phosphoglycolate], the results for the Ki at NovoTim1.0 and at wild-type TIM were 130 µM and 4 µM, respectively.

B1: ribose-binding protein (protein)
chain: KDTIALVVSTLNNPFFVSLKDGAQKEADKLGYNLVVLDSQNNPAKELANVQDLTVRGTKILLINPTDSDAVGNAVKMANQANIPVITLDRQATKGEVVSHIASDNVLGGKIAGDYIAKKAGEGAKVIELQGIAGTSAARERGEGFQQAVAAHKFNVLASQPADFDRIKGLNVMQNLLTAHPDVQAVFAQNDEMALGALRALQTAGKSDVMVVGFDGTPDGEKAVNDGKLAATIAQLPDQIGAKGVETADKVLKGEKVQAKYPVDLKLVVKQ
As to B1, in data set [3], the Kd is 0.2 µM. Further, in data set [4], the Tm is 58 °C.

B2: arabinose-binding protein (protein, UniProt P02924 24-329, looked up)
L-arabinose-binding …: ENLKLGFLVKQPEEPWFQTEWKFADKAGKDLGFEVIKIAVPDGEKTLNAIDSLAASGAKGFVICTPDPKLGSAIVAKARGYDMKVIAVDDQFVNAKGKPMDTVPLVMMAATKIGERQGQELYKEMQKRGWDVKESAVMAITANELDTARRRTTGSMDALKAAGFPEKQIYQVPTKSNDIPGAFDAANSMLVQHPEVKHWLIVGMNDSTVLGGVRATEGQGFKAADIIGIGINGVDAVSELSKAQATGFYGSLLPSPDVHGYKSSEMLYNWVAKDVEPPKFTEVTDVVLITRDNFKEELEKKGLGGK
In the case of B2, in data set [4], the Tm amounted to 54 °C.

B3: histidine-binding protein (protein, UniProt P0AEU0 23-260, looked up)
Histidine-binding periplasmic …: AIPQNIRIGTDPTYAPFESKNSQGELVGFDIDLAKELCKRINTQCTFVENPLDALIPSLKAKKIDAIMSSLSITEKRQQEIAFTDKLYAADSRLVVAKNSDIQPTVESLKGKRVGVLQGTTQETFGNEHWAPKGIEIVSYQGQDNIYSDLTAGRIDAAFQDEVAASEGFLKQPVGKDYKFGGPSVKDEKLFGVGTGMGLRKEDNELREALNKAFAEMRADGTYEKLAKKYFDFDVYGG
Take B3: the Tm in data set [4] came out at 58 °C.

B4: Lac.R1: RBP variant designed to bind L-lactate (protein)
chain: KDTIALVVSTLNVPARVSLKDGAQKEADKLGYNLVVLDSQNNPAKELANVQDLTVRGTKILLINPTDSDAVGNAVKMANQANIPVITLSSQATKGEVVSHIASDNVLGGKIAGDYIAKKAGEGAKVIELQGIAGTSKAREMGEGFQQAVAAHKFNVLASQPADKDRIKGLNVMQNLLTAHPDVQAVFAQIDEMALGALRALQTAGKSDVMVVGFSGTPDGEKAVNDGKLAATIATLPDQIGAKGVETADKVLKGEKVQAKYPVDLKLVVKQ
Regarding B4, the Kd was 40 µM in data set [5], 7.4 µM in data set [6] and 40 µM in [7].

B5: glutamine-binding protein (protein, UniProt P0AEQ3 23-248, looked up)
Glutamine-binding periplasmic …: ADKKLVVATDTAFVPFEFKQGDKYVGFDVDLWAAIAKELKLDYELKPMDFSGIIPALQTKNVDLALAGITITDERKKAIDFSDGYYKSGLLVMVKANNNDVKSVKDLDGKVVAVKSGTGSVDYAKANIKTKDLRQFPNIDNAYMELGTNRADAVLHDTPNILYFIKTAGNGQFKAVGDSLEAQQYGIAFPKGSDELRDKVNGALKTLRENGTYNEIYKKWFGTEPK
Turning to B5, the Tm in data set [4] came to 62 °C.

B6: Lac.G2: GBP variant designed to bind L-lactate (protein)
chain: ADTRIGVTIKKYDMNKMSVVRKAIEQDAKAAPDVQLLMNDSQNDQSKQNDQIDVLLAKGVKALAINLVDPAAAGTVIEKARGQNVPVVFFKLEPSRKALDSYDKAYYVGTDSKESGIIQGDLIAKHWAANQGWDLNKDGQIQFVLLKGEPGKPKAEAMTTYVIKELNDKGIKTEQLQLDTAMKDTAQAKDKMDAWLSGPNANKIEVVIANNDAMAMGAVEALKAHNKSSIPVFGVAALPEALALVKSGALAGTVLSDANNQAKATFDLAKNLADGKGAADGTNWKIDNKVVRVPYVGVDKDNLAEFSKK
For B6, the Kd in [5] amounted to 55 µM; in data set [6], 2.1 µM; in data set [7], 115 µM. Further, in data set [4], the Tm is 50 °C.

B7: Lac.G1 (protein)
chain: B6 chain with M14K, K16F, K152M, K154H, M158K, S256D
Regarding B7, the Kd in [5] was 205 µM; in [6], 2.8 µM; in [7], 255 µM.
